Measurements taken from patent US20020037288A1.

Legend:
[1] = target: HM1.24 antigen protein (human); assay: FCM, indirect method, 25 ug/ml antibody; JM cells (T cell line)
[2] = target: HM1.24 antigen protein (human); assay: FCM, indirect method, 25 ug/ml antibody; CESS cells (B cell line)
[3] = target: HM1.24 antigen protein (human); assay: FCM, indirect method, 25 ug/ml antibody; EB-3 cells (B cell line)
[4] = target: HM1.24 antigen protein (human); assay: FCM, indirect method, 25 ug/ml antibody; KT-3 cells (T cell line)
[5] = target: HM1.24 antigen protein (human); assay: FCM, indirect method, 25 ug/ml antibody; MT-1 cells (T cell line)
[6] = target: HM1.24 antigen protein (human); assay: FCM, indirect method, 25 ug/ml antibody; MC116 cells (B cell line)
[7] = target: HM1.24 antigen protein (human); assay: FCM, indirect method, 25 ug/ml antibody; Jijoye cells (B cell line)
[8] = target: HM1.24 antigen protein (human); assay: FCM, indirect method, 25 ug/ml antibody; Jurkat cells (T cell line)
[9] = target: HM1.24 antigen protein (human); assay: FCM, indirect method, 25 ug/ml antibody; MOLT-4 cells (T cell line)
[10] = target: HM1.24 antigen protein (human); assay: FCM, indirect method, 25 ug/ml antibody; CCRF-SB cells (B cell line)
[11] = target: HM1.24 antigen protein (human); assay: FCM, indirect method, 25 ug/ml antibody; HPB-ALL cells (T cell line)
[12] = target: HM1.24 antigen protein (human); assay: FCM, indirect method, 25 ug/ml antibody; HPB-MLT cells (T cell line)
[13] = target: HM1.24 antigen protein (human); assay: FCM, indirect method, 25 ug/ml antibody; SKW 6.4 cells (B cell line)
[14] = target: HM1.24 antigen protein (human); assay: FCM, indirect method, 25 ug/ml antibody; CCRF-CEM cells (T cell line)
[15] = target: HM1.24 antigen protein (human); assay: FCM, indirect method, 25 ug/ml antibody; RPMI 6410 cells (B cell line)
[16] = target: HM1.24 antigen protein (human); assay: FCM, indirect method, 25 ug/ml antibody; RPMI 8402 cells (T cell line)
[17] = target: HM1.24 antigen protein (human); assay: FCM, indirect method, 25 ug/ml antibody; CCRF-HSB-2 cells (T cell line)

percentage of HM1.24 antigen-positive cells (Expression rate) [1]: 99.6% | percentage of HM1.24 antigen-positive cells (Expression rate) [2]: 94.5% | percentage of HM1.24 antigen-positive cells (Expression rate) [3]: 88.3% | percentage of HM1.24 antigen-positive cells (Expression rate) [4]: 96% | percentage of HM1.24 antigen-positive cells (Expression rate) [5]: 95.9% | percentage of HM1.24 antigen-positive cells (Expression rate) [6]: 65% | percentage of HM1.24 antigen-positive cells (Expression rate) [7]: 92.3% | percentage of HM1.24 antigen-positive cells (Expression rate) [8]: 70.9% | percentage of HM1.24 antigen-positive cells (Expression rate) [9]: 84.1% | percentage of HM1.24 antigen-positive cells (Expression rate) [10]: 98.4% | percentage of HM1.24 antigen-positive cells (Expression rate) [11]: 63.8% | percentage of HM1.24 antigen-positive cells (Expression rate) [12]: 94.6% | percentage of HM1.24 antigen-positive cells (Expression rate) [13]: 92.8% | percentage of HM1.24 antigen-positive cells (Expression rate) [14]: 97.8% | percentage of HM1.24 antigen-positive cells (Expression rate) [15]: 94.5% | percentage of HM1.24 antigen-positive cells (Expression rate) [16]: 94% | percentage of HM1.24 antigen-positive cells (Expression rate) [17]: 100%
Substance: mouse anti-HM1.24 monoclonal antibody
